From the supplement of paper PMC9112550, “Optimization of the antimicrobial peptide Bac7 by deep mutational scanning” (BMC Biology, 2022) come the findings set out here.
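Also: peptides expressed intracellularly from a pBAD plasmid library in pooled LB shake-flask culture, induced with 0.3% L-arabinose, DNA abundance read by NGS, three biological replicates, DESeq2 with apeglm shrinkage.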

This series deals with Escherichia coli TOP10. Briefly: shrunken log2 fold change of peptide-encoding DNA abundance (4.5 h post-induction vs induction); higher = less antimicrobial activity (less host growth inhibition). Conditions: time post-induction: 4.5 h; library: site-saturation at positions 5, 18, 19, 20.
Turning to RRIRHRPPRLPRPRPRPQRQPRP, the “shrunken log2 fold change” value is 0.0621.

As to RRIRFRPPRLPRPRPRPPKMPRP, the “shrunken log2 fold change” value amounted to 0.436.

For the sequence RRIRPRPPRLPRPRPRPHSVPRP, the “shrunken log2 fold change” value was -0.213.

For RRIRCRPPRLPRPRPRPIRHPRP, the “shrunken log2 fold change” value was -0.146.

Take RRIRFRPPRLPRPRPRPEPIPRP: the “shrunken log2 fold change” value was 0.291.

In the case of RRIRHRPPRLPRPRPRPKSEPRP, the “shrunken log2 fold change” value is -0.00614.

Regarding RRIRVRPPRLPRPRPRPQRNPRP, the “shrunken log2 fold change” value is -0.0128.

RRIRIRPPRLPRPRPRPCDQPRP: the “shrunken log2 fold change” value was -0.021.

For RRIRARPPRLPRPRPRPIDTPRP, the “shrunken log2 fold change” value worked out at 0.0213.

For RRIRERPPRLPRPRPRPIVEPRP, the “shrunken log2 fold change” value was found to be 0.0517.

For RRIRYRPPRLPRPRPRPRYPPRP, the “shrunken log2 fold change” value was -0.83.

RRIRTRPPRLPRPRPRPQHAPRP: the “shrunken log2 fold change” value was -0.0164.

Consider RRIRYRPPRLPRPRPRPEITPRP, for which the “shrunken log2 fold change” value is -0.295.

Take RRIRIRPPRLPRPRPRPCNFPRP: the “shrunken log2 fold change” value is -0.061.

RRIRDRPPRLPRPRPRPFLFPRP: the “shrunken log2 fold change” value came to 0.212.

For RRIRPRPPRLPRPRPRPNPRPRP, the “shrunken log2 fold change” value was 0.596.

As for RRIRLRPPRLPRPRPRPVFWPRP, the “shrunken log2 fold change” value was found to be 0.247.

In the case of RRIRWRPPRLPRPRPRPTRYPRP, the “shrunken log2 fold change” value was -0.104.

Consider RRIRNRPPRLPRPRPRPIWQPRP, for which the “shrunken log2 fold change” value came to 0.0123.

Regarding RRIRCRPPRLPRPRPRPPAQPRP, the “shrunken log2 fold change” value stood at 1.18.

As for RRIRARPPRLPRPRPRPKTCPRP, the “shrunken log2 fold change” value amounted to 0.161.

RRIRSRPPRLPRPRPRPSNLPRP: the “shrunken log2 fold change” value was -0.193.

For the sequence RRIRSRPPRLPRPRPRPMHFPRP, the “shrunken log2 fold change” value worked out at 0.0521.

As for RRIRSRPPRLPRPRPRPCQKPRP, the “shrunken log2 fold change” value was found to be 0.185.

For RRIRLRPPRLPRPRPRPYKIPRP, the “shrunken log2 fold change” value was -0.0766.

Take RRIRHRPPRLPRPRPRPFAPPRP: the “shrunken log2 fold change” value was -0.0777.

For the sequence RRIRYRPPRLPRPRPRPPLVPRP, the “shrunken log2 fold change” value was 0.174.

For RRIRARPPRLPRPRPRPNMCPRP, the “shrunken log2 fold change” value was -0.339.

RRIRARPPRLPRPRPRPIPPPRP: the “shrunken log2 fold change” value came to 0.217.

Regarding RRIRGRPPRLPRPRPRPFHMPRP, the “shrunken log2 fold change” value was -0.0599.

With RRIRWRPPRLPRPRPRPGIEPRP, the “shrunken log2 fold change” value was 0.281.

For RRIRNRPPRLPRPRPRPWYPPRP, the “shrunken log2 fold change” value was -0.215.

Turning to RRIRGRPPRLPRPRPRPMQQPRP, the “shrunken log2 fold change” value was 2.08.

Take RRIRGRPPRLPRPRPRPSKYPRP: the “shrunken log2 fold change” value was determined as 0.00351.

Take RRIRERPPRLPRPRPRPGYRPRP: the “shrunken log2 fold change” value is -0.408.

In the case of RRIRMRPPRLPRPRPRPHGGPRP, the “shrunken log2 fold change” value is -0.0492.

For the sequence RRIRCRPPRLPRPRPRPRKYPRP, the “shrunken log2 fold change” value is -0.458.

Regarding RRIRERPPRLPRPRPRPNHSPRP, the “shrunken log2 fold change” value was -0.594.

As for RRIRSRPPRLPRPRPRPDLCPRP, the “shrunken log2 fold change” value is -0.159.

Regarding RRIRYRPPRLPRPRPRPMVDPRP, the “shrunken log2 fold change” value was -0.248.

Turning to RRIRGRPPRLPRPRPRPYCGPRP, the “shrunken log2 fold change” value is -0.349.

With RRIRTRPPRLPRPRPRPERHPRP, the “shrunken log2 fold change” value is -0.0333.

As to RRIRRRPPRLPRPRPRPRMQPRP, the “shrunken log2 fold change” value turned out to be 0.372.

Consider RRIRWRPPRLPRPRPRPVLCPRP, for which the “shrunken log2 fold change” value amounted to 0.341.

For RRIRNRPPRLPRPRPRPTSPPRP, the “shrunken log2 fold change” value stood at 0.113.

As to RRIRWRPPRLPRPRPRPEGDPRP, the “shrunken log2 fold change” value was 0.166.

As to RRIRYRPPRLPRPRPRPGDCPRP, the “shrunken log2 fold change” value is -0.189.

For the sequence RRIRIRPPRLPRPRPRPYWFPRP, the “shrunken log2 fold change” value is -0.112.

RRIRWRPPRLPRPRPRPYWPPRP: the “shrunken log2 fold change” value was -0.022.

Consider RRIRKRPPRLPRPRPRPIKIPRP, for which the “shrunken log2 fold change” value was -0.149.

For the sequence RRIRTRPPRLPRPRPRPRHSPRP, the “shrunken log2 fold change” value is -0.106.

On to RRIRFRPPRLPRPRPRPPQCPRP, for which the “shrunken log2 fold change” value was determined as 0.237.

For the sequence RRIRQRPPRLPRPRPRPKVFPRP, the “shrunken log2 fold change” value was -0.00192.

With RRIRWRPPRLPRPRPRPHSTPRP, the “shrunken log2 fold change” value is -0.209.

Regarding RRIRYRPPRLPRPRPRPVSIPRP, the “shrunken log2 fold change” value is -0.821.

Take RRIRRRPPRLPRPRPRPKMSPRP: the “shrunken log2 fold change” value came to 0.274.

As to RRIRYRPPRLPRPRPRPRLVPRP, the “shrunken log2 fold change” value is -0.0287.

Regarding RRIRSRPPRLPRPRPRPHTGPRP, the “shrunken log2 fold change” value is -0.703.

On to RRIRWRPPRLPRPRPRPLMDPRP, for which the “shrunken log2 fold change” value was found to be 0.185.

As to RRIRYRPPRLPRPRPRPHLEPRP, the “shrunken log2 fold change” value is -0.021.

For RRIRQRPPRLPRPRPRPKEHPRP, the “shrunken log2 fold change” value was -0.117.

With RRIRGRPPRLPRPRPRPTDPPRP, the “shrunken log2 fold change” value turned out to be 0.687.

On to RRIRKRPPRLPRPRPRPNVCPRP, for which the “shrunken log2 fold change” value is -0.144.

For the sequence RRIRRRPPRLPRPRPRPLFAPRP, the “shrunken log2 fold change” value was 0.755.

On to RRIRKRPPRLPRPRPRPGKEPRP, for which the “shrunken log2 fold change” value came out at 0.266.

In the case of RRIRARPPRLPRPRPRPQDKPRP, the “shrunken log2 fold change” value was -0.132.

As for RRIRSRPPRLPRPRPRPTQSPRP, the “shrunken log2 fold change” value was determined as 0.449.

Take RRIRQRPPRLPRPRPRPLCVPRP: the “shrunken log2 fold change” value is -0.183.

Regarding RRIRVRPPRLPRPRPRPHRQPRP, the “shrunken log2 fold change” value is -0.384.

As for RRIRHRPPRLPRPRPRPEAEPRP, the “shrunken log2 fold change” value is 0.409.

On to RRIRWRPPRLPRPRPRPCQDPRP, for which the “shrunken log2 fold change” value was -0.0575.

For RRIRIRPPRLPRPRPRPSQNPRP, the “shrunken log2 fold change” value is -0.766.

Regarding RRIRIRPPRLPRPRPRPDSAPRP, the “shrunken log2 fold change” value is -0.194.

On to RRIRDRPPRLPRPRPRPHTVPRP, for which the “shrunken log2 fold change” value is -0.0379.

Regarding RRIRFRPPRLPRPRPRPHYPPRP, the “shrunken log2 fold change” value is -0.178.

RRIRDRPPRLPRPRPRPSDHPRP: the “shrunken log2 fold change” value was -0.422.

Regarding RRIRRRPPRLPRPRPRPLDSPRP, the “shrunken log2 fold change” value is -0.106.

With RRIRPRPPRLPRPRPRPLMRPRP, the “shrunken log2 fold change” value was found to be 0.761.

With RRIRRRPPRLPRPRPRPEAHPRP, the “shrunken log2 fold change” value was found to be 0.171.

In the case of RRIRLRPPRLPRPRPRPLNWPRP, the “shrunken log2 fold change” value was -0.0552.

RRIRMRPPRLPRPRPRPRLGPRP: the “shrunken log2 fold change” value worked out at 0.644.

For RRIRERPPRLPRPRPRPTFFPRP, the “shrunken log2 fold change” value was found to be 0.321.

As for RRIRHRPPRLPRPRPRPNKNPRP, the “shrunken log2 fold change” value is -0.717.

On to RRIRHRPPRLPRPRPRPDADPRP, for which the “shrunken log2 fold change” value came to 0.0435.

Take RRIRHRPPRLPRPRPRPVPGPRP: the “shrunken log2 fold change” value was -0.163.

As for RRIRSRPPRLPRPRPRPNDAPRP, the “shrunken log2 fold change” value was 0.0331.

RRIRTRPPRLPRPRPRPKPCPRP: the “shrunken log2 fold change” value was -0.126.

RRIRIRPPRLPRPRPRPEQQPRP: the “shrunken log2 fold change” value was -0.132.

Regarding RRIRRRPPRLPRPRPRPSQEPRP, the “shrunken log2 fold change” value is -0.225.

As for RRIRIRPPRLPRPRPRPCMWPRP, the “shrunken log2 fold change” value is -1.51.

For the sequence RRIRIRPPRLPRPRPRPAWSPRP, the “shrunken log2 fold change” value was -0.191.

For RRIRIRPPRLPRPRPRPPSSPRP, the “shrunken log2 fold change” value is -0.0293.

For RRIRLRPPRLPRPRPRPATRPRP, the “shrunken log2 fold change” value stood at 0.145.

With RRIRVRPPRLPRPRPRPIHQPRP, the “shrunken log2 fold change” value was -0.166.

With RRIRVRPPRLPRPRPRPCFCPRP, the “shrunken log2 fold change” value was -0.252.

With RRIRSRPPRLPRPRPRPDRQPRP, the “shrunken log2 fold change” value was -0.0702.

Turning to RRIRQRPPRLPRPRPRPNMYPRP, the “shrunken log2 fold change” value was -0.433.

Take RRIRRRPPRLPRPRPRPDAKPRP: the “shrunken log2 fold change” value came to 0.644.

Consider RRIRERPPRLPRPRPRPSQPPRP, for which the “shrunken log2 fold change” value worked out at 0.0471.

For the sequence RRIRYRPPRLPRPRPRPSIQPRP, the “shrunken log2 fold change” value is -0.594.

Regarding RRIRQRPPRLPRPRPRPSLMPRP, the “shrunken log2 fold change” value is -0.112.

In the case of RRIRERPPRLPRPRPRPVPWPRP, the “shrunken log2 fold change” value worked out at 0.0881.

As for RRIRARPPRLPRPRPRPNFPPRP, the “shrunken log2 fold change” value was -0.0362.

For the sequence RRIRIRPPRLPRPRPRPCPQPRP, the “shrunken log2 fold change” value is -0.458.

As to RRIRWRPPRLPRPRPRPMQKPRP, the “shrunken log2 fold change” value was -0.0122.

RRIRCRPPRLPRPRPRPRWWPRP: the “shrunken log2 fold change” value is 0.718.

In the case of RRIRVRPPRLPRPRPRPAEPPRP, the “shrunken log2 fold change” value came to 0.218.

Consider RRIRFRPPRLPRPRPRPWLFPRP, for which the “shrunken log2 fold change” value is -0.0194.

With RRIRPRPPRLPRPRPRPADQPRP, the “shrunken log2 fold change” value stood at 0.00426.

Turning to RRIRPRPPRLPRPRPRPVYSPRP, the “shrunken log2 fold change” value is -0.297.

Turning to RRIRSRPPRLPRPRPRPVFVPRP, the “shrunken log2 fold change” value is -0.00419.

Consider RRIRLRPPRLPRPRPRPGYIPRP, for which the “shrunken log2 fold change” value is -0.41.

On to RRIRRRPPRLPRPRPRPPETPRP, for which the “shrunken log2 fold change” value amounted to 0.831.

As for RRIRSRPPRLPRPRPRPVESPRP, the “shrunken log2 fold change” value was -0.0897.

RRIRQRPPRLPRPRPRPFWYPRP: the “shrunken log2 fold change” value is -0.171.

For RRIRFRPPRLPRPRPRPHDAPRP, the “shrunken log2 fold change” value is 0.293.

Regarding RRIRLRPPRLPRPRPRPPKMPRP, the “shrunken log2 fold change” value turned out to be 0.159.

Regarding RRIRARPPRLPRPRPRPHNRPRP, the “shrunken log2 fold change” value is -0.00621.

Consider RRIRIRPPRLPRPRPRPLLGPRP, for which the “shrunken log2 fold change” value was -0.175.

As for RRIRDRPPRLPRPRPRPKWFPRP, the “shrunken log2 fold change” value was -0.0316.

With RRIRRRPPRLPRPRPRPVHTPRP, the “shrunken log2 fold change” value was 0.0317.

For the sequence RRIRSRPPRLPRPRPRPRKRPRP, the “shrunken log2 fold change” value was found to be 0.213.

On to RRIRWRPPRLPRPRPRPHNFPRP, for which the “shrunken log2 fold change” value was -0.0122.

Take RRIRSRPPRLPRPRPRPNYRPRP: the “shrunken log2 fold change” value was -0.366.

In the case of RRIRVRPPRLPRPRPRPGLGPRP, the “shrunken log2 fold change” value was 0.134.
